Our source for the abundance fitness values is the Human Domainome abundance scans (Beltran et al. 2025).

To fix the notation:
B1: Nucleolar transcription factor 1, residues 408 to 469; numbered along this chain, P17480 (parent)
chain: KRPVSAMFIFSEEKRRQLQEERPELSESELTRLLARMWNDLSEKKKAKYKAREAALKAQSER

± gives the uncertainty stated by the source.

The variants in the data set derive from B1. In words: abundance fitness (aPCA) (normalised: wild type 0, dead -1); higher = more abundant; growth selection in yeast, the domain comes from the species named. Particulars: Homo sapiens.
On to KRPVSAMFIFSEEKRRQLQEECPELSESELTRLLARMWNDLSEKKKAKYKAREAALKAQSER [R22C], for which the abundance fitness is -0.081 ± 0.063.
Turning to KRPVSAMFIFSEEKRRQLQEEDPELSESELTRLLARMWNDLSEKKKAKYKAREAALKAQSER [R22D], the abundance fitness was -0.139 ± 0.11.
Then KRPVSAMFIFSEEKRRQLQEEIPELSESELTRLLARMWNDLSEKKKAKYKAREAALKAQSER [R22I], with -0.286 ± 0.083.
On to KRPVSAMFIFSEEKRRQLQEENPELSESELTRLLARMWNDLSEKKKAKYKAREAALKAQSER [R22N], for which the abundance fitness was -0.002 ± 0.089.
Take KRPVSAMFIFSEEKRRQLQEEHPELSESELTRLLARMWNDLSEKKKAKYKAREAALKAQSER [R22H]: the abundance fitness is 0.06 ± 0.11.
Turning to KRPVSAMFIFSEEKRRQLQEEQPELSESELTRLLARMWNDLSEKKKAKYKAREAALKAQSER [R22Q], the abundance fitness was -0.058 ± 0.082.
With KRPVSAMFIFSEEKRRQLQEEPPELSESELTRLLARMWNDLSEKKKAKYKAREAALKAQSER [R22P], the abundance fitness is -1.06 ± 0.16.
Consider KRPVSAMFIFSEEKRRQLQEEFPELSESELTRLLARMWNDLSEKKKAKYKAREAALKAQSER [R22F], for which the abundance fitness was -0.057 ± 0.068.
Then KRPVSAMFIFSEEKRRQLQEEKPELSESELTRLLARMWNDLSEKKKAKYKAREAALKAQSER [R22K], with -0.089 ± 0.083; and KRPVSAMFIFSEEKRRQLQEEEPELSESELTRLLARMWNDLSEKKKAKYKAREAALKAQSER [R22E], with -0.194 ± 0.11; and KRPVSAMFIFSEEKRRQLFEERPELSESELTRLLARMWNDLSEKKKAKYKAREAALKAQSER [Q19F], with -0.26 ± 0.11.
Regarding KRPVSAMFIFSEEKRRQLLEERPELSESELTRLLARMWNDLSEKKKAKYKAREAALKAQSER [Q19L], the abundance fitness was -0.017 ± 0.041.
For the variant KRPVSAMFIFSEEKRRQLSEERPELSESELTRLLARMWNDLSEKKKAKYKAREAALKAQSER [Q19S], the abundance fitness is -0.02 ± 0.041.
On to KRPVSAMFIFSEEKRRQLMEERPELSESELTRLLARMWNDLSEKKKAKYKAREAALKAQSER [Q19M], for which the abundance fitness came out at 0.012 ± 0.055.
With KRPVSAMFIFSEEKRRQLEEERPELSESELTRLLARMWNDLSEKKKAKYKAREAALKAQSER [Q19E], the abundance fitness is -0.067 ± 0.054.
Then KRPVSAMFIFSEEKRRQLGEERPELSESELTRLLARMWNDLSEKKKAKYKAREAALKAQSER [Q19G], with -0.076 ± 0.039; and KRPVSAMFIFSEEKRRQLKEERPELSESELTRLLARMWNDLSEKKKAKYKAREAALKAQSER [Q19K], with 0.007 ± 0.068.
For the variant KRPVSAMFIFSEEKRRQLNEERPELSESELTRLLARMWNDLSEKKKAKYKAREAALKAQSER [Q19N], the abundance fitness is -0.129 ± 0.074.
As to KRPVSAMFIFSEEKRRQLCEERPELSESELTRLLARMWNDLSEKKKAKYKAREAALKAQSER [Q19C], the abundance fitness was -0.083 ± 0.063.
The value for KRPVSAMFIFSEEKRRQLREERPELSESELTRLLARMWNDLSEKKKAKYKAREAALKAQSER [Q19R] was -0.016 ± 0.041; that for KRPVSAMFIFSEEKRRQLWEERPELSESELTRLLARMWNDLSEKKKAKYKAREAALKAQSER [Q19W] was -0.159 ± 0.043; that for KRPVSAMFIFSEEKRRQLVEERPELSESELTRLLARMWNDLSEKKKAKYKAREAALKAQSER [Q19V] was -0.025 ± 0.047.
With KRPVSAMFIFSEEKRRQLHEERPELSESELTRLLARMWNDLSEKKKAKYKAREAALKAQSER [Q19H], the abundance fitness was -0.099 ± 0.084.
Consider KRPVSAMFIFSEEKRRQLYEERPELSESELTRLLARMWNDLSEKKKAKYKAREAALKAQSER [Q19Y], for which the abundance fitness was -0.095 ± 0.082.
Consider KRPVSAMFIFSEEKRRQLAEERPELSESELTRLLARMWNDLSEKKKAKYKAREAALKAQSER [Q19A], for which the abundance fitness was -0.036 ± 0.06.
For the variant KRPVSAMFIFSEEKRRQLTEERPELSESELTRLLARMWNDLSEKKKAKYKAREAALKAQSER [Q19T], the abundance fitness was -0.128 ± 0.065.
In the case of KRPVSAMFIFSEEKRRQLIEERPELSESELTRLLARMWNDLSEKKKAKYKAREAALKAQSER [Q19I], the abundance fitness came out at 0.009 ± 0.091.
Then KRPVSAMFIFSEEKRRQLQKERPELSESELTRLLARMWNDLSEKKKAKYKAREAALKAQSER [E20K], with 0.019 ± 0.074; and KRPVSAMFIFSEEKRRQLQTERPELSESELTRLLARMWNDLSEKKKAKYKAREAALKAQSER [E20T], with -0.067 ± 0.082; and KRPVSAMFIFSEEKRRQLQVERPELSESELTRLLARMWNDLSEKKKAKYKAREAALKAQSER [E20V], with -0.055 ± 0.043.
Regarding KRPVSAMFIFSEEKRRQLQFERPELSESELTRLLARMWNDLSEKKKAKYKAREAALKAQSER [E20F], the abundance fitness is -0.018 ± 0.098.
For KRPVSAMFIFSEEKRRQLQDERPELSESELTRLLARMWNDLSEKKKAKYKAREAALKAQSER [E20D], the abundance fitness was 0.031 ± 0.11.
As for KRPVSAMFIFSEEKRRQLQIERPELSESELTRLLARMWNDLSEKKKAKYKAREAALKAQSER [E20I], the abundance fitness is -0.114 ± 0.097.
On to KRPVSAMFIFSEEKRRQLQAERPELSESELTRLLARMWNDLSEKKKAKYKAREAALKAQSER [E20A], for which the abundance fitness was -0.092 ± 0.045.
As to KRPVSAMFIFSEEKRRQLQSERPELSESELTRLLARMWNDLSEKKKAKYKAREAALKAQSER [E20S], the abundance fitness was -0.016 ± 0.055.
For the variant KRPVSAMFIFSEEKRRQLQHERPELSESELTRLLARMWNDLSEKKKAKYKAREAALKAQSER [E20H], the abundance fitness is -0.09 ± 0.088.
As for KRPVSAMFIFSEEKRRQLQLERPELSESELTRLLARMWNDLSEKKKAKYKAREAALKAQSER [E20L], the abundance fitness is -0.1 ± 0.045.
Take KRPVSAMFIFSEEKRRQLQCERPELSESELTRLLARMWNDLSEKKKAKYKAREAALKAQSER [E20C]: the abundance fitness was -0.025 ± 0.066.
For the variant KRPVSAMFIFSEEKRRQLQYERPELSESELTRLLARMWNDLSEKKKAKYKAREAALKAQSER [E20Y], the abundance fitness was -0.099 ± 0.13.
The value for KRPVSAMFIFSEEKRRQLQQERPELSESELTRLLARMWNDLSEKKKAKYKAREAALKAQSER [E20Q] was -0.016 ± 0.061.
For KRPVSAMFIFSEEKRRQLQMERPELSESELTRLLARMWNDLSEKKKAKYKAREAALKAQSER [E20M], the abundance fitness is -0.099 ± 0.1.
Consider KRPVSAMFIFSEEKRRQLQGERPELSESELTRLLARMWNDLSEKKKAKYKAREAALKAQSER [E20G], for which the abundance fitness was -0.064 ± 0.037.
As for KRPVSAMFIFSEEKRRQLQRERPELSESELTRLLARMWNDLSEKKKAKYKAREAALKAQSER [E20R], the abundance fitness is -0.012 ± 0.042.
